Target: TgPLP1 MACPF domain (residues 462 to 809, N720Q/N744Q), trypsinized in situ (TMH2 cut away) (Toxoplasma gondii) (UniProt V5BCL0)
Assay: crystal structure; second crystal form of the trypsinized MACPF domain, about 5 Å (5.0 in text, 5.11 in Table 1); 0.1 M Hepes pH 7.5, 10% alcohol mixture, 15% PEG-1000, 15% PEG-3350, 15% MPD; ring assembly, rigid-body refinement only

Substance: TgPLP1 MACPF domain (residues 462 to 809, N720Q/N744Q), trypsinized in situ (TMH2 cut away) (from UniProt V5BCL0 462-809) (domain or fragment)
- stoichiometry N: 6

From paper PMC5943054
